Patent US7708999B2, “Remedies for arthritis” (Kyowa Hakko Kirin Co., Ltd., priority 2001, dated 2010)

Test system: rat adjuvant arthritis model
Assay: Rat adjuvant arthritis model
Type: in vivo
Protocol: The rat adjuvant arthritis model was performed in the following manner according to the method of Pearson et al. (Pearson CM. et al., Arthritis Rheum., 5, 654-658, 1962) using Lewis rats (female, 8 weeks old, Japan Charles River).
Mycobacterium butyricum (manufactured by Difco) was suspended in a liquid paraffin (manufactured by Wako Pure Chemical Industries, Ltd.) to a final concentration of 6 mg/mL, and sterilized with a autoclave. The resulting solution was intradermally injected into the rat right hind pad in an amount of 100 μL for sensitization. One group consisted of 8 to 10 rats. Anti-FGF-8 neutralizing antibody KM1334 was dissolved in saline to a final concentration of 2 mg/mL. The solution was intraperitoneally administered to a KM1334 administrated group once a day at a dose of 0.5 mL per 100 g of the body weight for each rat on the sensitization day of the rat adjuvant arthritis model and on days 3, 7, 10, 14 and 17 from the sensitization. To saline administrated group, only saline was intraperitoneally administered instead of the anti-FGF-8 neutralizing antibody KM1334 solution. Further, sodium diclofenac, an antiinflammatory agent, was dissolved in a 0.5 w/v % methyl cellulose solution to a final concentration of 0.3 mg/mL, and the solution was orally administered to a sodium diclofenac administrated group as a positive control once a day at a dose of 1 mL per 100 g of the body weight on days 4, 7 to 11 and 14 to 18 from the adjuvant sensitization day. 50 mg of methotrexate® for injection (manufactured by Wyeth Japan) as a metabolic antagonist was dissolved in a 0.5 w/v % methyl cellulose solution to a final concentration of 0.01 mg/mL, and the solution was administered to a methotrexate administrated group in the same manner as in the sodium diclofenac administrated group. Prednisolone (manufactured by Sigma-Aldrich), a steroidal agent, was suspended in a 0.5 w/v % methyl cellulose solution to a final concentration of 0.3 mg/mL, and the suspension was administered to a prednisolone administrated group in the same manner as in the sodium diclofenac administrated group. Further, a 0.5 w/v % methyl cellulose solution alone was orally administered to a solvent administrated group in the same manner. An untreated group was used, and it was not subjected to sensitization with Mycobacterium butyricum and administration of an agent. The volumes of the adjuvant-treated paw and the adjuvant-untreated paw were measured as time goes by using a device for measuring edemas of rat hind paw (TK-101, manufactured by Unicom).
Using urine collected for 24 hours at day 20 and day 21 after the sensitization, the amounts of glycosaminoglycan, deoxypyridinoline, hydroxyproline and creatinine in urine were measured. The amount of glycosaminoglycan in urine was measured by the DMMB method described in Example 1. The amount of hydroxyproline in urine was measured by the method of Ikeda et al. (Ikeda Shingo et al., Tokyo Eiken Nenpo, 36 277-282, 1985). That is, 0.8 mL of hydrochloric acid for amino acid analysis (manufactured by Kanto Kagaku) was added to 0.8 mL of urine to hydrolyze at 110° C. for 15 hours. To 0.5 mL of the hydrolyzed sample was added 2 mL of a 1.2 mol/L sodium hydroxide solution for neutralization. 1 mL of isopropanol was added to 0.5 mL of the neutralized sample, and 1 ml of an oxidant solution was added. The mixture was stirred well, and allowed to stand at room temperature for 5 minutes. […]

[1] = adjuvant-untreated paw, score 0 to 4, mean ± standard error
[2] = urine day 20 to 21, KM1334 intraperitoneally, vs saline group

B1: KM1334: anti-FGF-8 neutralizing monoclonal antibody produced by hybridoma KM1334 (FERM BP-5451), mouse IgG1 subclass (antibody, V domains shown)
VH: QVQLQQSGAEVARPGASVKLSCKASGYTFTDYYLNWVKQRSGQGLEWIGEIDPGSDSIYYNENLEGRATLTADKSSSTAYMQLNSLTSEDSAVYFCARYGYSRYDVRFVYWGQGTLVTVST
VL: DVLMTQTPLSLPVSLGDQASISCRSSQSLVHSNGRTYLEWYLQKPGQSPKVLIYKVSNRISGVPDRFSGSGSGTDFTLKISRVEAEDLGVYFCFQGSHVPYTFGGGTKLEIK
Bone destruction score (Table 1, soft X-ray of calcaneus, adjuvant-untreated paw, day 21, maximum 5, mean ± standard error): 3.2 ± 0.5 | Bone destruction score (% inhibition) (Table 1, vs saline group, not significant): 27% | Pathological score: Blood cell plasma leak to articular cavity [1]: 1.6 ± 0.3 | Pathological score: Blood leak around joint [1]: 2.0 ± 0.4 | inhibition of the increase in paw volume, adjuvant-untreated paw (day 21, 2 mg/mL, 0.5 mL per 100 g intraperitoneally, vs saline group): 69% | decrease of the increase in amount of hydroxyproline in urine (urine day 20 to 21, KM1334 intraperitoneally, not significant): 48% | inhibition of the increase in amount of deoxypyridinoline in urine (deoxypyridinoline/creatinine ratio) [2]: 41% | inhibition of the increase in amount of glycosaminoglycan in urine (glycosaminoglycan/creatinine ratio) [2]: 73% | Blood cell plasma leak to articular cavity (Percent inhibition) (vs saline group): 41% | Blood leak around joint (Percent inhibition) (vs saline group): 41%
